For test [1], the target named is T1, Human CD3 E+G HuFc-6xHis (human).
T1 construct: also called hu CD3εγ-Fc
The test can be described thus: SPR (ProteOn XPR36), HuCD3E_HuCD3G-Fc amine-coupled, bispecific as analyte, Example 4B. The essentials: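 SPR kinetics with the bispecific constructs flowed as analyte over a directly amine-coupled (pH 4.5 acetate) human CD3εγ-Fc surface. Association runs 600 s and dissociation 1800 s, at 30 μl/min in PBS-T-EDTA.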

Test [2] concerns the target T2, FLAG-tagged human DLL4 full length (human, UniProt Q9NR61 1-685).
T2 construct: also called human DLL4 on HEK293 cells
Briefly: flow cytometry on HEK293 cells expressing human DLL4 (HEK293-huDLL4), PE anti-human secondary, control: secondary antibody only. As for the experimental part: (§1) Bound molecules were detected with PE-conjugated anti-human secondary antibody (Sigma-Aldrich, #P8047). As negative control, cells were incubated with secondary antibody only. The samples were measured by flow-cytometry.
A general note: In flow cytometry, cells or beads pass a laser one at a time.

Test [3] addresses T3, Human DLL3-His (human, UniProt Q9NYJ7 27-492).
T3 construct: also called huDLL3-His; hu DLL3
T3 sequence: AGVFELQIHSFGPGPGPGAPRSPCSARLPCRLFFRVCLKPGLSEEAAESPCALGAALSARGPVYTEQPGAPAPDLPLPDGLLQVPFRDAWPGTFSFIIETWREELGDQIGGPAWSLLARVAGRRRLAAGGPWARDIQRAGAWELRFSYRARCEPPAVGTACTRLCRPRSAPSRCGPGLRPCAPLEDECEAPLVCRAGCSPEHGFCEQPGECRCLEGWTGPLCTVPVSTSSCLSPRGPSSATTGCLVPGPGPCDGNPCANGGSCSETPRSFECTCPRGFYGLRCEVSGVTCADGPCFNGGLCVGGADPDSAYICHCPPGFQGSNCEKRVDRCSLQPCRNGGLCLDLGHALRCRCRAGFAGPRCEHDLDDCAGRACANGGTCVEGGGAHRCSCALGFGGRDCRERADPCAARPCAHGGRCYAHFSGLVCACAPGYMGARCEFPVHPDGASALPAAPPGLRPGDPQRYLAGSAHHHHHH
Briefly: SPR (ProteOn XPR36), bispecific captured on protein A/G, hu DLL3 as analyte, Example 4B. The essentials: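 Bispecific constructs captured on protein A/G for 200 s at 30 μl/min, baseline stabilized with PBS-T-EDTA. Human DLL3 analyte injected 300 s at 30 μl/min; dissociation followed for 1800 s.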

In test [4] the target is T4, FLAG-tagged human DLL1 full length (human, UniProt O00548 1-723).
T4 construct: also called human DLL1 on HEK293 cells
T4 sequence: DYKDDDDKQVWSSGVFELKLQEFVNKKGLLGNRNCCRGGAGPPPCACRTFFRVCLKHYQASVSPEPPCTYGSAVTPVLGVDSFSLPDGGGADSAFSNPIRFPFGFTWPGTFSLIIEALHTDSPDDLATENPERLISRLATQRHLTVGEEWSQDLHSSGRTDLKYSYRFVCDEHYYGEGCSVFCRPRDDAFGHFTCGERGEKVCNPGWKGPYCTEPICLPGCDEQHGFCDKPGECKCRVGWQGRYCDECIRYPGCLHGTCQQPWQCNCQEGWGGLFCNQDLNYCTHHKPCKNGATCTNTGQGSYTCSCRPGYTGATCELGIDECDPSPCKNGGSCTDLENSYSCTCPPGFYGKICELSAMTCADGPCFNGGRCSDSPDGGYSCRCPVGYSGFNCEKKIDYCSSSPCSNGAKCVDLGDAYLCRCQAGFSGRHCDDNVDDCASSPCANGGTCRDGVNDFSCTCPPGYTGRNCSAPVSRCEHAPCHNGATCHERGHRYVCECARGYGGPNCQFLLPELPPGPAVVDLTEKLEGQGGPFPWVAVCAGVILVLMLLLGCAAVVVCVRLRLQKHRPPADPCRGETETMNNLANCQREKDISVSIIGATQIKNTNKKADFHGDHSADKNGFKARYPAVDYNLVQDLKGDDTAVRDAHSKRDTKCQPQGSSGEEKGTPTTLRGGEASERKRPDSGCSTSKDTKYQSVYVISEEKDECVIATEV
Briefly: flow cytometry on HEK293 cells expressing human DLL1 (HEK293-huDLL1), PE anti-human secondary, control: secondary antibody only. As to the method: as §1

The target of test [5] is T5, human DLL3 (endogenous, on SCLC cell lines NCI-H82 and SHP77 and in SCLC tissue) (human, UniProt Q9NYJ7 27-618).
T5 construct: whole, on cells; also called SCLC cell lines expressing DLL3
T5 sequence (looked up): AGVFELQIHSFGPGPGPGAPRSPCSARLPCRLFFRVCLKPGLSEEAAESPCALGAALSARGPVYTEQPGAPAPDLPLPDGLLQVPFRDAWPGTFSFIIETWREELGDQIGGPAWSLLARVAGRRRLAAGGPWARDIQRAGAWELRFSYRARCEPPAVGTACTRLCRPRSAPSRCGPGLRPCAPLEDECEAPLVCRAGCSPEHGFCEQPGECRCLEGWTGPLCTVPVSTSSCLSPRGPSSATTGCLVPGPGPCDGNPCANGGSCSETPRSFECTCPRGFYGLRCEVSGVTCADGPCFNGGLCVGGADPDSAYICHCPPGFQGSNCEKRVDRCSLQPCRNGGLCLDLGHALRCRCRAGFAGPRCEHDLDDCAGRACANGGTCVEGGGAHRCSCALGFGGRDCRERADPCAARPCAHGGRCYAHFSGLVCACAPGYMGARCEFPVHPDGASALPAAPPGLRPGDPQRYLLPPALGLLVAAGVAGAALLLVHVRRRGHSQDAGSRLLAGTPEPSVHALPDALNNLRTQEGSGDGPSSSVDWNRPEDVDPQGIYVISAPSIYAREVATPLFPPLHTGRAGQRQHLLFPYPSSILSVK
Briefly: flow cytometry titration on SHP77 cells, PE anti-human secondary, x-fold over background. An excerpt: Cells (T cells or human SCLC cells) were stained with increasing concentrations of two-step purified DLL3/CD3 binding proteins with increasing concentrations in FACS buffer (PBS/0.5% BSA/0.05% sodium azide). Bound molecules were detected with PE-conjugated anti-human secondary antibody (Sigma-Aldrich, #P8047).

Residue numbers refer to the chain shown, from its start.

T1 sequence (chain, as listed by the source limits assumed): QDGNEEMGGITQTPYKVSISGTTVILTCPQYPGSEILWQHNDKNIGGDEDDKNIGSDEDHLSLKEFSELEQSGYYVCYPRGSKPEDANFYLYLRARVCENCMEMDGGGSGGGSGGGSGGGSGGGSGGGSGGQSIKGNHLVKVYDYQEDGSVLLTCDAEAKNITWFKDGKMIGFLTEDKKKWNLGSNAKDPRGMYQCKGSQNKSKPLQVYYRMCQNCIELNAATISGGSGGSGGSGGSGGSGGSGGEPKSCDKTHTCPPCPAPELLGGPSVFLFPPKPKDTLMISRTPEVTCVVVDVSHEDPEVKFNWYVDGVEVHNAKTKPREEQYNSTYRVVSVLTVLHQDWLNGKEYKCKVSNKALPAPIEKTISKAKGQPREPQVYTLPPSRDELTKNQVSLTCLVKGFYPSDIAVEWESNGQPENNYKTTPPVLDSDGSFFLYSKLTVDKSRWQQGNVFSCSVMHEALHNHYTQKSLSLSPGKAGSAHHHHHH
T2 sequence (Q9NR61 other isoform, or with tags, fused parts or gaps limits assumed): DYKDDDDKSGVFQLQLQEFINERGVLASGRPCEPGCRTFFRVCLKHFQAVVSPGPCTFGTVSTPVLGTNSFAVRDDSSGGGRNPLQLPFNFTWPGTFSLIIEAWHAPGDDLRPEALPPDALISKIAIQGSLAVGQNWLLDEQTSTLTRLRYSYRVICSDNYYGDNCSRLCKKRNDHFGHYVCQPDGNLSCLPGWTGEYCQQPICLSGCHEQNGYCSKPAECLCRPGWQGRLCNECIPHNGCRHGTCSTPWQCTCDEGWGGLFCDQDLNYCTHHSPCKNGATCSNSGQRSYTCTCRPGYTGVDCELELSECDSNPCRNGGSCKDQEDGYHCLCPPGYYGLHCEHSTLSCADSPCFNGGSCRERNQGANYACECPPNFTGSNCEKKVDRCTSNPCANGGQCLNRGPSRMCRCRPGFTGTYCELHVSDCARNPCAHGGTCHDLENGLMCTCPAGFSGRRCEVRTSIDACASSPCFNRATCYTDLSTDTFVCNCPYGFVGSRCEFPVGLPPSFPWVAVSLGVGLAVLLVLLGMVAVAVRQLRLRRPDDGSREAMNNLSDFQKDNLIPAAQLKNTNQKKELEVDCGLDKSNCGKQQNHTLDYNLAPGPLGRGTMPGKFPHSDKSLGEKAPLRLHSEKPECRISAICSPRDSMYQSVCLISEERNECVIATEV

B1: DLL3#2/CD3#1 (bispecific antibody, human IgG1, kappa, lambda, L234A L235A)
chain 1: DIQMTQSPSAMSASVGDRVTITCRASQGISNYLAWFQQKPGKVPEPLIYAASSLQSGVPSRFSGSGSVTEFTLTISSLQPEDFATYYCLQHNSSPYTFGQGTKLEIKRTVAAPSVFIFPPSDEQLKSGTASVVCLLNNFYPREAKVQWKVDNALQSGNSQESVTEQDSKDSTYSLSSTLTLSKADYEKHKVYACEVTHQGLSSPVTKSFNRGECGGGGSEGKSSGSGSESKSTEGKSSGSGSESKSTGGGGSQVQLVQSGAEVKKPGASVKVSCKASGYTFTSYYMHWVRQAPGQGLEWMGIINPSGGSTSYAQKFQGRVTMTRDTSTSTVYMELSSLRSEDTAVYYCARGEAVGGNYYYYGMDVWGQGTTVTVSSASTKGPSVFPLAPSSKSTSGGTAALGCLVKDYFPEPVTVSWNSGALTSGVHTFPAVLQSSGLYSLSSVVTVPSSSLGTQTYICNVNHKPSNTKVDKRVEPKSCDKTHTCPPCPAPEAAGGPSVFLFPPKPKDTLMISRTPEVTCVVVDVSHEDPEVKFNWYVDGVEVHNAKTKPREEQYNSTYRVVSVLTVLHQDWLNGKEYKCKVSNKALPAPIEKTISKAKGQPREPQVYTLPPSREEMTKNQVSLWCLVKGFYPSDIAVEWESNGQPENNYKTTPPVLDSDGSFFLYSKLTVDKSRWQQGNVFSCSVMHEALHNHYTQKSLSLSPG
chain 2: EAVVTQEPSLTVSPGGTVTLTCRSSTGAVTTSNYANWVQEKPGQLPRGLIGGTNKRAPWVPARFSGSLLGGKAALTLSGAQPEDEAEYFCALWYSNLWVFGGGTKLTVLGQPKAAPSVTLFPPSSEELQANKATLVCLISDFYPGAVKVAWKADGSPVNTGVETTTPSKQSNNKYAASSYLSLTPEQWKSHRSYSCQVTHEGSTVEKTVAPAECSGGGGSEGKSSGSGSESKSTEGKSSGSGSESKSTGGGGSEVQLVESGGGLVQPGGSLKLSCAASGFTFNTYAMNWVRQAPGKGLEWVARIRSKYNNYATYYADSVKDRFTISRDDSKNTAYLQMNNLKTEDTAVYYCVRHGNFGNSYVSWFAYWGQGTLVTVSAASTKGPSVFPLAPSSKSTSGGTAALGCLVKDYFPEPVTVSWNSGALTSGVHTFPAVLQSSGLYSLSSVVTVPSSSLGTQTYICNVNHKPSNTKVDKRVEPKSCDKTHTCPPCPAPEAAGGPSVFLFPPKPKDTLMISRTPEVTCVVVDVSHEDPEVKFNWYVDGVEVHNAKTKPREEQYNSTYRVVSVLTVLHQDWLNGKEYKCKVSNKALPAPIEKTISKAKGQPREPQVYTLPPSREEMTKNQVSLSCAVKGFYPSDIAVEWESNGQPENNYKTTPPVLDSDGSFFLVSKLTVDKSRWQQGNVFSCSVMHEALHNRFTQKSLSLSPG
notes: Heterodimer of one DLL3 chain and one CD3 chain (scFab-Fc, knob-in-hole)
Turning to B1, the Kd – broadly, the equilibrium constant for the complex coming apart – is 3 nM in test [1] and 0.091 nM in test [3]. The binding result in test [2] and in test [4] was “no binding (tested: 1.6 nM)” in each case.

B2: DLL3#4/CD3#1 (bispecific antibody, human IgG1, kappa, lambda, L234A L235A)
chain 1: not shown
chain 2: B1 chain 2
notes: as for B1
On to B2, for which the Kd in test [1] is 2 nM; in test [3], less than 0.02 nM. In addition, the binding result in test [2] and in test [4] was “no binding (tested: 1.6 nM)” each time. In addition, the EC50 (read off the curve) (as a rule, the concentration needed to bring the measured effect to its halfway point) in test [5] was roughly 0.3 nM.

B3: DLL3#5/CD3#1 (bispecific antibody, human IgG1, kappa, lambda, L234A L235A)
chain 1: not shown
chain 2: B1 chain 2
notes: as for B1
Turning to B3, the Kd in test [1] was 3 nM; in test [3] it was less than 0.02 nM. Moreover, the binding result in test [2] and in test [4] was “no binding (tested: 1.6 nM)” each time. In addition, the “EC50 (read off the curve)” value in test [5] was roughly 1 nM.

B4: DLL3#3/CD3#1 (bispecific antibody, human IgG1, kappa, lambda, L234A L235A)
chain 1: DIQMTQSPSAMSASVGDRVTITCRASQGISNYLVWFQQKPGKAPKRLIYAVSSLYSGVPSRFSGSGSGTEFTLTISSLQPEDFATYYCLQHDSYPYTFGQGTKLEIKRTVAAPSVFIFPPSDEQLKSGTASVVCLLNNFYPREAKVQWKVDNALQSGNSQESVTEQDSKDSTYSLSSTLTLSKADYEKHKVYACEVTHQGLSSPVTKSFNRGECGGGGSEGKSSGSGSESKSTEGKSSGSGSESKSTGGGGSQVQLVQSGAEVKKPGASVKVSCKASGYTFTSYYVHWVRQAPGQGLEWMVIINPGGGTTSYAQKFLGRVTMTRDTSTNTVYMELKSLRSEDTAVYYCARGEAVTGNYFYYGMDVWGQGTTVTVSSASTKGPSVFPLAPSSKSTSGGTAALGCLVKDYFPEPVTVSWNSGALTSGVHTFPAVLQSSGLYSLSSVVTVPSSSLGTQTYICNVNHKPSNTKVDKRVEPKSCDKTHTCPPCPAPEAAGGPSVFLFPPKPKDTLMISRTPEVTCVVVDVSHEDPEVKFNWYVDGVEVHNAKTKPREEQYNSTYRVVSVLTVLHQDWLNGKEYKCKVSNKALPAPIEKTISKAKGQPREPQVYTLPPSREEMTKNQVSLWCLVKGFYPSDIAVEWESNGQPENNYKTTPPVLDSDGSFFLYSKLTVDKSRWQQGNVFSCSVMHEALHNHYTQKSLSLSPG
chain 2: B1 chain 2
notes: as for B1
B4: the Kd amounted to 2 nM in test [1] and 0.075 nM in test [3]. Moreover, the binding result in test [2] and in test [4] was “no binding (tested: 1.6 nM)” throughout.

B5: DLL3#3/CD3#2 (bispecific antibody, human IgG1, kappa, lambda, L234A L235A)
chain 1: B4 chain 1
chain 2: B1 chain 2 with N309I
notes: as for B1
As to B5, the Kd in test [1] stood at 7 nM; in test [3] it was 0.12 nM. Moreover, the binding result in test [2] and in test [4] was “no binding (tested: 1.6 nM)” throughout.

(Values after patent US20220251236A1 (Boehringer Ingelheim, published 2022).)
